Source: paper PMC9927398

How the values were obtained:
CRP WT (CRPMtb) [1] = molecular target: T1, CRP WT (CRPMtb) (Mycobacterium tuberculosis (strain for …, UniProt P9WMH3 1-224)); assay: competition; conditions: protein: recombinant; tags: His tag (Ni2+ purified; pET28a); chain copies: 2; blunt
T1 sequence: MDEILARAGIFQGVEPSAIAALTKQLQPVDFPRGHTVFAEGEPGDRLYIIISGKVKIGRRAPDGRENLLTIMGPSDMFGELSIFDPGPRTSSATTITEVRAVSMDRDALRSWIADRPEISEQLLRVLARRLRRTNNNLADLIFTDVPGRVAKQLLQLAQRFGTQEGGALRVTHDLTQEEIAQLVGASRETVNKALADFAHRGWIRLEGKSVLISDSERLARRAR

CRP WT (CRPMtb) [2] = molecular target: T1, CRP WT (CRPMtb); assay: EMSA; no cAMP; 5 and 15 uM protein; conditions: protein: recombinant; tags: His tag (Ni2+ purified; pET28a); chain copies: 2; blunt

Row | Binder | binding result (CRP WT (CRPMtb) [1]) | binding result (CRP WT (CRPMtb) [2])
1 | 2D3 unlabeled competitor (dsDNA) DNA 1: CTCTATGTGACGAAGCCCACATCGAC DNA 2: GTCGATGTGGGCTTCGTCACATAGAG | binds | 
2 | 2D3 (dsDNA) DNA 1: CTCTATGTGACGAAGCCCACATCGAC DNA 2: GTCGATGTGGGCTTCGTCACATAGAG |  | binds
